This note sets out measurements from patent publication US20240254223A1 (published 2024).

For orientation: Kd means the concentration at which binding is half-saturated.

This test deals with His-tagged human CD47 (human, UniProt Q08722 19-139).
Sequence of His-tagged human CD47 (Q08722 19-139): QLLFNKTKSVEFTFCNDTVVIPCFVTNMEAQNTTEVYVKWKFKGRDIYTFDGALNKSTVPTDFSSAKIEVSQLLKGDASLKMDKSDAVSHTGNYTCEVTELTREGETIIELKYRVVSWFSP

B1: pNOVI V2K K33 (antibody, V domains shown)
VH: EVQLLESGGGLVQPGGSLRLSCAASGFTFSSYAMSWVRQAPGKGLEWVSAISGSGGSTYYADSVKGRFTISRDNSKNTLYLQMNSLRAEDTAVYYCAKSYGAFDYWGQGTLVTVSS
VL: DIQMTQSPSSLSASVGDRVTITCRASQSISSYLNWYQQKPGKAPKLLIYAASSLQSGVPSRFSGSGSGTDFTLTISSLQPEDFATYYCQQFHKRSPQKFGQGTKVEIKR
Turning to B1, the Kd came out at 56 nM.
